Assays:
[1] = target: full length WT-Pcad with an mCherry tag on the C-terminus (human) (UniProt P22223); experiment: co-IP; lysates of A431 Pcad-mCherry cells grown 48 h without or with CQY684 Fab (200 nM); anti-mCherry rabbit mAb on magnetic protein G beads pulls down Pcad as bait; p120 detected by Western blot, p120/Pcad ratio normalised to WT -CQY; M2 lysis buffer pH 7.5, 50 mM Tris-HCl, 150 mM NaCl, 1% SDS, 1% Triton-X 100
[2] = target: full length W2A-Pcad with an mCherry tag on the C-terminus (human); experiment: as above
full length W2A-Pcad with an mCherry tag on the C-terminus (human), sequence (P22223 whole entry W109A): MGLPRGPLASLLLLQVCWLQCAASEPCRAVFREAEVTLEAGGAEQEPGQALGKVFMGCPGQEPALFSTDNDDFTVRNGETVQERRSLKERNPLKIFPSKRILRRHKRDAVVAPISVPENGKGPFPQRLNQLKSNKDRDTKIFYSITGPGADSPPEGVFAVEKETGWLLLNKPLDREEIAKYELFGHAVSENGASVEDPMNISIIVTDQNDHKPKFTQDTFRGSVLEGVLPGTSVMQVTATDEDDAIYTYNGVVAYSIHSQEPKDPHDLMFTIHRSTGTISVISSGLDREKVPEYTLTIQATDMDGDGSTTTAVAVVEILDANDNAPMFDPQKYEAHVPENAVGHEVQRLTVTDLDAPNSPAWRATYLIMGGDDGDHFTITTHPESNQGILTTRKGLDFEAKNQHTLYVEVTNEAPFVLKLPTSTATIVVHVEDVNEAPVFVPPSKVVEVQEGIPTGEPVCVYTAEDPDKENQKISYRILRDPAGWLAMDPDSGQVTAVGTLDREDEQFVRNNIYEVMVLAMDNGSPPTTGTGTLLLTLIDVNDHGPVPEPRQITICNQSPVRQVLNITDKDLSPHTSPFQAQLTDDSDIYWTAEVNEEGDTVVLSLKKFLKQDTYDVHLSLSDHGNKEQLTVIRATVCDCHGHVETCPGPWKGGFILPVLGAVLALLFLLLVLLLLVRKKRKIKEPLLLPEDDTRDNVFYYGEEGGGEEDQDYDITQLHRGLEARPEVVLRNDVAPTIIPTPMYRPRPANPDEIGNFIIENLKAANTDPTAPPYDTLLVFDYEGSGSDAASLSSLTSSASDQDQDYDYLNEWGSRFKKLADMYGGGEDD

full length WT-Pcad with an mCherry tag on the C-terminus (human), sequence (P22223 25-829): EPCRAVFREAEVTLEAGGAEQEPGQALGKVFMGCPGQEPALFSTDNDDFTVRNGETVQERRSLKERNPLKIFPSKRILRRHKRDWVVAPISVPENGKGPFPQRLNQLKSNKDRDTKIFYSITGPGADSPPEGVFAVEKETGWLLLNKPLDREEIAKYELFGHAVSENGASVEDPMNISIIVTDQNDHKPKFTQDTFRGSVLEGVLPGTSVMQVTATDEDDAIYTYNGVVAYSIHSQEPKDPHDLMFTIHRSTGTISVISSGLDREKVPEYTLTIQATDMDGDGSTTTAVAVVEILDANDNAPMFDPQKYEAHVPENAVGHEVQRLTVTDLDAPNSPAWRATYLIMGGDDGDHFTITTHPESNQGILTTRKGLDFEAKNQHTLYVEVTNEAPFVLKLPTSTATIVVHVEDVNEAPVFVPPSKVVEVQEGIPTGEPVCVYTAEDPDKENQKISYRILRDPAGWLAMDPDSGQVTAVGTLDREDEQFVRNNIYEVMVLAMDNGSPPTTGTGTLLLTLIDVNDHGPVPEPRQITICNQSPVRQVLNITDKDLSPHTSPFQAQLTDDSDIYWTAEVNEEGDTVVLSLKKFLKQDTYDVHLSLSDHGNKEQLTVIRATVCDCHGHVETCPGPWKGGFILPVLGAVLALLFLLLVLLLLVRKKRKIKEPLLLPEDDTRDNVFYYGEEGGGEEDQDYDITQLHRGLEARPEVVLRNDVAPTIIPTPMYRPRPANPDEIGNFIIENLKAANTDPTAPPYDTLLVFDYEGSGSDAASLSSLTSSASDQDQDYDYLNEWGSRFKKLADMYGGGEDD

p120 associated with Pcad in cells grown with CQY684 Fab, percent of the WT -CQY condition [1]: 60%
p120 associated with Pcad, percent of the WT -CQY condition [2]: 30%
B1: p120-catenin (natural protein)
chain: MDDSEVESTASILASVKEQEAQFEKLTRALEEERRHVSAQLERVRVSPQDANPLMANGTLTRRHQNGRFVGDADLERQKFSDLKLNGPQDHSHLLYSTIPRMQEPGQIVETYTEEDPEGAMSVVSVETSDDGTTRRTETTVKKVVKTVTTRTVQPVAMGPDGLPVDASSVSNNYIQTLGRDFRKNGNGGPGPYVGQAGTATLPRNFHYPPDGYSRHYEDGYPGGSDNYGSLSRVTRIEERYRPSMEGYRAPSRQDVYGPQPQVRVGGSSVDLHRFHPEPYGLEDDQRSMGYDDLDYGMMSDYGTARRTGTPSDPRRRLRSYEDMIGEEVPSDQYYWAPLAQHERGSLASLDSLRKGGPPPPNWRQPELPEVIAMLGFRLDAVKSNAAAYLQHLCYRNDKVKTDVRKLKGIPVLVGLLDHPKKEVHLGACGALKNISFGRDQDNKIAIKNCDGVPALVRLLRKARDMDLTEVITGTLWNLSSHDSIKMEIVDHALHALTDEVIIPHSGWEREPNEDCKPRHIEWESVLTNTAGCLRNVSSERSEARRKLRECDGLVDALIFIVQAEIGQKDSDSKLVENCVCLLRNLSYQVHREIPQAERYQEAAPNVANNTGPHAASCFGAKKGKDEWFSRGKKPIEDPANDTVDFPKRTSPARGYELLFQPEVVRIYISLLKESKTPAILEASAGAIQNLCAGRWTYGRYIRSALRQEKALSAIADLLTNEHERVVKAASGALRNLAVDARNKELIGKHAIPNLVKNLPGGQQNSSWNFSEDTVISILNTINEVIAENLEAAKKLRETQGIEKLVLINKSGNRSEKEVRAAALVLQTIWGYKELRKPLEKEGWKKSDFQVNLNNASRSQSSHSYDDSTLPLIDRNQKSDKKPDREEIQMSNMGSNTKSLDNNYSTPNERGDHNRTLDRSGDLGDMEPLKGTTPLMQDEGQESLEEELDVLVLDDEGGQVSYPSMQKI

From paper PMC11779849
